The values that follow come from patent US20110053865A1 (published 2011).

Targets include 3C7; 3H5; 3A7; 3A11; 1G8; 4F3; 3G9; 3E1; 3A10; 3D4; 124G2; 124D2; 124H2; 119H1; 12A11; 12D2; 81D1; 119B3; 123F1; 124H5; 121C7; 119C3; 119C9.
Holding throughout (assay): Biacore; eBiosc hIL23
In general terms: Surface plasmon resonance follows binding to a sensor surface in real time, without labels.

B1: eBiosc hIL23 (ligand)
chain 1: RAVPGGSSPAWTQCQQLSQKLCTLAWSAHPLVGHMDLREEGDEETTNDVPHIQCGDGCDPQGLRDNSQFCLQRIHQGLIFYEKLLGSDIFTGEPSLLPDSPVGQLHASLLGLSQLLQPEGHHWETQQIPSLSPSQPWQRLLLRFKILRSLQAFVAVAARVFAHGAATLSP
chain 2: IWELKKDVYVVELDWYPDAPGEMVVLTCDTPEEDGITWTLDQSSEVLGSGKTLTIQVKEFGDAGQYTCHKGGEVLSHSLLLLHKKEDGIWSTDILKDQKEPKNKTFLRCEAKNYSGRFTCWWLTTISTDLTFSVKSSRGSSDPQGVTCGAATLSAERVRGDNKEYEYSVECQEDSACPAAEESLPIEVMVDAVHKLKYENYTSSFFIRDIIKPDPPKNLQLKPLKNSRQVEVSWEYPDTWSTPHSYFSLTFCVQVQGKSKREKKDRVFTDKTSATVICRKNASISVRAQDRYYSSSWSEWASVPCS
Broadly, the koff is a measure of how fast the partners let go of each other. A low value points to slow dissociation. Take B1: the koff came out at 0.0102 s⁻¹ with 3C7; 0.00333 s⁻¹ with 3H5; 0.00507 s⁻¹ in the test with 3A7; 0.00513 s⁻¹ in the test with 3A11; 0.00223 s⁻¹ with 1G8; 0.00208 s⁻¹ with 4F3. Besides, the koff worked out at 0.00672 s⁻¹ with 3G9; 0.00866 s⁻¹ with 3E1; 0.00286 s⁻¹ with 3A10; 0.0062 s⁻¹ with 3D4; 9.28e-05 s⁻¹ in the test with 124G2; 0.000103 s⁻¹ with 124D2. In addition, the koff with 124H2 turned out to be 5.88e-05 s⁻¹; with 119H1, 0.0106 s⁻¹; in the test with 12A11 it was 0.000134 s⁻¹; with 12D2, 0.000125 s⁻¹; with 81D1 it was 0.0114 s⁻¹; with 119B3, 0.00015 s⁻¹. The koff with 123F1 was found to be 0.000377 s⁻¹; with 124H5, 3.54e-05 s⁻¹; with 121C7 it was 0.000112 s⁻¹; in the test with 119C3, 0.0334 s⁻¹; in the test with 119C9, 0.0012 s⁻¹.
